For one substance, Fluorescence Increase (fold change) and Kd results are on record in patent publication US20060211075A1, “Enzyme sensors including environmentally sensitive or fluorescent labels and uses thereof” (The Albert Einstein College of Medicine of Yeshiva …, priority 2005, published 2006).

Assay [1] addresses phosphotyrosine version of peptide 13, Ac-Glu-Glu-Glu-Ile-pTyr-Dap(NBD)-Glu-Ile-Glu-Ala-amide. The assay can be described thus: Src phosphorylation of 16 µM peptide 13 at 8 µM Lck-SH2, fluorescence.
The target in assay [2] is phosphorylated peptide 14, Ac-Glu-Glu-Glu-Ile-pTyr-Gly-Glu-Ile-Dab(dapoxyl)-Ala-amide. The assay can be described thus: Src phosphorylation of 8 µM peptide 14 at 16 µM Lck-SH2, fluorescence.
For assay [3], the target named is phosphotyrosine version of peptide 13, Ac-Glu-Glu-Glu-Ile-pTyr-Dap(NBD)-Glu-Ile-Glu-Ala-amide. The assay can be described thus: Src phosphorylation of 16 µM peptide 13 at 12 µM Lck-SH2, fluorescence.
Assay [4] shares this target. The assay is described as follows: fluorescence titration: Src-phosphorylated peptide 13 fixed at 16 µM, GST-Lck-SH2 varied, nonlinear regression.
Assay [5] addresses phosphorylated peptide 14, Ac-Glu-Glu-Glu-Ile-pTyr-Gly-Glu-Ile-Dab(dapoxyl)-Ala-amide. The assay can be described thus: Src phosphorylation of 8 µM peptide 14 at 26 µM Lck-SH2, fluorescence.
Assay [6] shares this target. The assay is described as follows: Src phosphorylation of 8 µM peptide 14 at 32 µM Lck-SH2, fluorescence.
Assay [7] deals with phosphotyrosine version of peptide 13, Ac-Glu-Glu-Glu-Ile-pTyr-Dap(NBD)-Glu-Ile-Glu-Ala-amide. The assay is described as follows: Src phosphorylation of 16 µM peptide 13 at 26 µM Lck-SH2, fluorescence.
For assay [8] the target is unchanged. The assay is described as follows: Src phosphorylation of 16 µM peptide 13 at 0 µM Lck-SH2 (baseline point of the titration).
In assay [9] the target is phosphorylated peptide 14, Ac-Glu-Glu-Glu-Ile-pTyr-Gly-Glu-Ile-Dab(dapoxyl)-Ala-amide. The assay is described as follows: Src phosphorylation of 8 µM peptide 14 at 0.2 µM Lck-SH2, fluorescence.
Assay [10] shares this target. The assay can be described thus: Src phosphorylation of 8 µM peptide 14 at 4 µM Lck-SH2, fluorescence.
Assay [11] shares this target. The assay can be described thus: Src phosphorylation of 8 µM peptide 14 at 2 µM Lck-SH2, fluorescence.
The target of assay [12] is phosphotyrosine version of peptide 13, Ac-Glu-Glu-Glu-Ile-pTyr-Dap(NBD)-Glu-Ile-Glu-Ala-amide. The assay is described as follows: Src phosphorylation of 16 µM peptide 13 at 20 µM Lck-SH2, fluorescence.
Assay [13] has the same target. The assay can be described thus: Src phosphorylation of 16 µM peptide 13 at 16 µM Lck-SH2, fluorescence.
For assay [14] the target is unchanged. The assay can be described thus: Src phosphorylation of 16 µM peptide 13 at 32 µM Lck-SH2, fluorescence.
Assay [15] addresses phosphorylated peptide 14, Ac-Glu-Glu-Glu-Ile-pTyr-Gly-Glu-Ile-Dab(dapoxyl)-Ala-amide. The assay can be described thus: Src phosphorylation of 8 µM peptide 14 at 8 µM Lck-SH2, fluorescence.
The target is the same in assay [16]. The assay can be described thus: Src phosphorylation of 8 µM peptide 14 at 20 µM Lck-SH2, fluorescence.
Assay [17] has the same target. The assay can be described thus: Src phosphorylation of 8 µM peptide 14 at 12 µM Lck-SH2, fluorescence.
The target in assay [18] is phosphotyrosine version of peptide 13, Ac-Glu-Glu-Glu-Ile-pTyr-Dap(NBD)-Glu-Ile-Glu-Ala-amide. The assay is described as follows: Src phosphorylation of 16 µM peptide 13 at 4 µM Lck-SH2, fluorescence.

Take “GST-Lck-SH2 (from UniProt P06239 127-224)”: the Fluorescence Increase (fold change) in assay [1] worked out at 1.33 fold; in assay [2], 6.2 fold; in assay [3], 1.41 fold; in assay [5] it was 7.32 fold; in assay [6], 7.2 fold; in assay [7], 1.61 fold. Moreover, the Fluorescence Increase (fold change) was 1.07 fold in [8]; 1.07 fold in [9]; 2.32 fold in assay [10]; 1.7 fold in [11]; 1.56 fold in assay [12]; 1.52 fold in assay [13]. The Fluorescence Increase (fold change) worked out at 1.59 fold in assay [14]; 4.31 fold in assay [15]; 6.85 fold in assay [16]; 5.34 fold in [17]; 1.24 fold in assay [18]. The substance also gave a Kd in assay [4] of 2.1 µM.
